Assay results as given in PMC7128310, “Negative Regulation of TLR Signaling by BCAP Requires Dimerization of Its DBB Domain” (The Journal of Immunology Author Choice, 2020).

Biological target: the molecule itself
Test: SEC-MALS; 50 μl at 2 mg/ml on Superdex 200 Increase 10/300 GL

B1: BCAP DBB-ANK (residues 179-404) (domain or fragment, human, UniProt Q6ZUJ8 179-404, looked up)
chain: MVVQPDRIRCGAETTVYVIVRCKLDDRVATEAEFSPEDSPSVRMEAKVENEYTISVKAPNLSSGNVSLKIYSGDLVVCETVISYYTDMEEIGNLLSNAANPVEFMCQAFKIVPYNTETLDKLLTESLKNNIPASGLHLFGINQLEEEDMMTNQRDEELPTLLHFAAKYGLKNLTALLLTCPGALQAYSVANKHGHYPNTIAEKHGFRDLRQFIDEYVETVDMLKSH
notes: B cell adaptor protein (BCAP), human, DBB and ANK domains, residues 179-404; Cloned into pMCSG7 or pMCSG9; source: E. coli BL21(DE3), purified (Ni-NTA, TEV, Superdex 200)
  stoichiometry N: 2
